Results from the supplement of paper PMC9112550, “Optimization of the antimicrobial peptide Bac7 by deep mutational scanning” (BMC Biology, 2022).

Test system: Escherichia coli TOP10
Assay: shrunken log2 fold change of peptide-encoding DNA abundance (4.5 h post-induction vs induction); higher = less antimicrobial activity (less host growth inhibition)
Details: time post-induction: 4.5 h; library: site-saturation at positions 5, 18, 19, 20
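Note: peptides expressed intracellularly from a pBAD plasmid library in pooled LB shake-flask culture, induced with 0.3% L-arabinose, DNA abundance read by NGS, three biological replicates, DESeq2 with apeglm shrinkage.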

| Sequence | shrunken log2 fold change |
| --- | --- |
| RRIRERPPRLPRPRPRPPLTPRP | -0.0766 |
| RRIRTRPPRLPRPRPRPSAVPRP | -0.0697 |
| RRIRMRPPRLPRPRPRPTEVPRP | 0.598 |
| RRIRIRPPRLPRPRPRPQMPPRP | -0.662 |
| RRIRQRPPRLPRPRPRPYVVPRP | -0.102 |
| RRIRARPPRLPRPRPRPKCCPRP | 0.165 |
| RRIRIRPPRLPRPRPRPNLCPRP | -0.0543 |
| RRIRSRPPRLPRPRPRPLRGPRP | 0.897 |
| RRIRCRPPRLPRPRPRPPYIPRP | -0.305 |
| RRIRARPPRLPRPRPRPVMYPRP | 0.0749 |
| RRIRQRPPRLPRPRPRPRNSPRP | -0.0108 |
| RRIRTRPPRLPRPRPRPCRRPRP | -0.111 |
| RRIRTRPPRLPRPRPRPLAKPRP | 0.0419 |
| RRIRWRPPRLPRPRPRPYSQPRP | -0.425 |
| RRIRSRPPRLPRPRPRPTDWPRP | 0.354 |
| RRIRRRPPRLPRPRPRPLVCPRP | 0.177 |
| RRIRYRPPRLPRPRPRPFQPPRP | -0.375 |
| RRIRQRPPRLPRPRPRPIKIPRP | -0.0595 |
| RRIRARPPRLPRPRPRPHVEPRP | 0.147 |
| RRIRWRPPRLPRPRPRPTIVPRP | -0.33 |
| RRIRTRPPRLPRPRPRPEWDPRP | 0.064 |
| RRIRSRPPRLPRPRPRPMWNPRP | -0.204 |
| RRIRRRPPRLPRPRPRPLKWPRP | -0.107 |
| RRIRSRPPRLPRPRPRPRSTPRP | 0.0523 |
| RRIRDRPPRLPRPRPRPPNRPRP | 0.789 |

| Sequence | shrunken log2 fold change |
| --- | --- |
| RRIRIRPPRLPRPRPRPMRDPRP | 0.189 |
| RRIRNRPPRLPRPRPRPYKAPRP | -0.388 |
| RRIRKRPPRLPRPRPRPHSKPRP | 0.0726 |
| RRIRMRPPRLPRPRPRPRIIPRP | -0.138 |
| RRIRFRPPRLPRPRPRPDMNPRP | -0.407 |
| RRIRQRPPRLPRPRPRPQECPRP | -0.00962 |
| RRIRTRPPRLPRPRPRPEAMPRP | 0.0163 |
| RRIRIRPPRLPRPRPRPESAPRP | 0.0116 |
| RRIRPRPPRLPRPRPRPIHFPRP | -0.241 |
| RRIRRRPPRLPRPRPRPLKTPRP | 0.157 |
| RRIRERPPRLPRPRPRPTRSPRP | -0.196 |
| RRIRERPPRLPRPRPRPRQAPRP | 0.0291 |
| RRIRARPPRLPRPRPRPQGDPRP | 0.207 |
| RRIRIRPPRLPRPRPRPHEFPRP | -0.241 |
| RRIRHRPPRLPRPRPRPADSPRP | -0.039 |
| RRIRPRPPRLPRPRPRPHMKPRP | 1.08 |
| RRIRDRPPRLPRPRPRPDTDPRP | 0.0647 |
| RRIRDRPPRLPRPRPRPHNMPRP | -0.135 |
| RRIRARPPRLPRPRPRPIFTPRP | 0.165 |
| RRIRLRPPRLPRPRPRPKGEPRP | 0.149 |
| RRIRNRPPRLPRPRPRPHAWPRP | -0.0119 |
| RRIRKRPPRLPRPRPRPKNAPRP | 0.216 |
| RRIRYRPPRLPRPRPRPFMTPRP | -2.5 |
| RRIRERPPRLPRPRPRPIAIPRP | -0.00127 |
| RRIRHRPPRLPRPRPRPIVTPRP | -0.388 |

| Sequence | shrunken log2 fold change |
| --- | --- |
| RRIRGRPPRLPRPRPRPKLAPRP | 1.67 |
| RRIRHRPPRLPRPRPRPNWAPRP | -0.0735 |
| RRIRVRPPRLPRPRPRPFSWPRP | -0.144 |
| RRIRVRPPRLPRPRPRPCPYPRP | -1.14 |
| RRIRWRPPRLPRPRPRPVKMPRP | 0.125 |
| RRIRKRPPRLPRPRPRPSGNPRP | 0.267 |
| RRIRGRPPRLPRPRPRPEMRPRP | 2.35 |
| RRIRWRPPRLPRPRPRPCTNPRP | -0.0757 |
| RRIRYRPPRLPRPRPRPIAWPRP | -0.0381 |
| RRIRFRPPRLPRPRPRPSVSPRP | -0.2 |
| RRIRLRPPRLPRPRPRPGQGPRP | -0.0179 |
| RRIRIRPPRLPRPRPRPFGKPRP | -0.0569 |
| RRIRRRPPRLPRPRPRPLWGPRP | 0.0229 |
| RRIRLRPPRLPRPRPRPGKPPRP | -0.0724 |
| RRIRWRPPRLPRPRPRPVTRPRP | -0.0273 |
| RRIRQRPPRLPRPRPRPYSCPRP | 0.0133 |
| RRIRARPPRLPRPRPRPCECPRP | 0.633 |
| RRIRVRPPRLPRPRPRPKALPRP | 0.0497 |
| RRIRYRPPRLPRPRPRPRKRPRP | 0.266 |
| RRIRMRPPRLPRPRPRPAKMPRP | 0.134 |
| RRIRARPPRLPRPRPRPMDQPRP | -0.194 |
| RRIRNRPPRLPRPRPRPTHDPRP | -0.219 |
| RRIRMRPPRLPRPRPRPYQPPRP | 0.0396 |
| RRIRHRPPRLPRPRPRPSAKPRP | -0.324 |
| RRIRCRPPRLPRPRPRPNPPPRP | 0.557 |

| Sequence | shrunken log2 fold change |
| --- | --- |
| RRIRVRPPRLPRPRPRPVLFPRP | 0.00022 |
| RRIRHRPPRLPRPRPRPVYKPRP | -0.665 |
| RRIRIRPPRLPRPRPRPMKCPRP | -0.0692 |
| RRIRLRPPRLPRPRPRPKHMPRP | -0.0682 |
| RRIRQRPPRLPRPRPRPAYNPRP | 0.018 |
| RRIRGRPPRLPRPRPRPEICPRP | 1.73 |
| RRIRLRPPRLPRPRPRPGIEPRP | -0.00975 |
| RRIRVRPPRLPRPRPRPQCIPRP | 0.101 |
| RRIRRRPPRLPRPRPRPAEVPRP | 0.219 |
| RRIRYRPPRLPRPRPRPCPWPRP | -0.227 |
| RRIRMRPPRLPRPRPRPYALPRP | 0.0157 |
| RRIRGRPPRLPRPRPRPLINPRP | 0.116 |
| RRIRNRPPRLPRPRPRPHVSPRP | -0.00166 |
| RRIRRRPPRLPRPRPRPNTLPRP | -0.283 |
| RRIRDRPPRLPRPRPRPGLVPRP | 0.644 |
| RRIRIRPPRLPRPRPRPWYWPRP | -1.38 |
| RRIRPRPPRLPRPRPRPPPSPRP | 1.12 |
| RRIRGRPPRLPRPRPRPWKPPRP | 0.0444 |
| RRIRRRPPRLPRPRPRPNAVPRP | 0.23 |
| RRIRVRPPRLPRPRPRPHSRPRP | 0.0978 |
| RRIRARPPRLPRPRPRPDECPRP | -0.0409 |
| RRIRGRPPRLPRPRPRPEEVPRP | 1.53 |
| RRIRRRPPRLPRPRPRPWQDPRP | 0.0293 |
| RRIRNRPPRLPRPRPRPPRKPRP | 0.523 |
| RRIRVRPPRLPRPRPRPRTKPRP | 0.0796 |

| Sequence | shrunken log2 fold change |
| --- | --- |
| RRIRQRPPRLPRPRPRPFERPRP | 0.0412 |
| RRIRNRPPRLPRPRPRPGYSPRP | -0.42 |
| RRIRRRPPRLPRPRPRPPPKPRP | 0.995 |
| RRIRYRPPRLPRPRPRPQRMPRP | -0.74 |
| RRIRSRPPRLPRPRPRPDMCPRP | 0.0552 |
| RRIRPRPPRLPRPRPRPNHHPRP | -0.509 |
| RRIRKRPPRLPRPRPRPHRFPRP | -0.0599 |
| RRIRQRPPRLPRPRPRPCAAPRP | 0.339 |
| RRIRRRPPRLPRPRPRPRHVPRP | 0.158 |
| RRIRLRPPRLPRPRPRPNWSPRP | -0.136 |
| RRIRARPPRLPRPRPRPVPPPRP | 1.05 |
| RRIRDRPPRLPRPRPRPGLIPRP | 0.0516 |
| RRIRRRPPRLPRPRPRPVYHPRP | -0.0449 |
| RRIRVRPPRLPRPRPRPDCVPRP | 0.0012 |
| RRIRPRPPRLPRPRPRPTRFPRP | 0.41 |
| RRIRDRPPRLPRPRPRPISFPRP | -0.0563 |
| RRIRSRPPRLPRPRPRPIHEPRP | -0.00691 |
| RRIRCRPPRLPRPRPRPIRVPRP | 0.161 |
| RRIRPRPPRLPRPRPRPEEAPRP | 0.0763 |
| RRIRERPPRLPRPRPRPCYYPRP | -0.312 |
| RRIRFRPPRLPRPRPRPSHYPRP | -0.762 |
| RRIRLRPPRLPRPRPRPINGPRP | 0.015 |
| RRIRERPPRLPRPRPRPAIKPRP | -0.656 |
| RRIRVRPPRLPRPRPRPRPDPRP | 0.216 |
| RRIRPRPPRLPRPRPRPKMGPRP | -0.0348 |

| Sequence | shrunken log2 fold change |
| --- | --- |
| RRIRTRPPRLPRPRPRPVVNPRP | 0.0198 |
| RRIRGRPPRLPRPRPRPTRTPRP | 1.32 |
| RRIRCRPPRLPRPRPRPWYKPRP | -1.01 |
| RRIRSRPPRLPRPRPRPIRKPRP | 0.143 |
| RRIRVRPPRLPRPRPRPDHWPRP | 0.152 |
| RRIRRRPPRLPRPRPRPSYEPRP | -0.33 |
| RRIRRRPPRLPRPRPRPWFYPRP | -0.00712 |
| RRIRYRPPRLPRPRPRPWTSPRP | -0.039 |
| RRIRYRPPRLPRPRPRPAALPRP | -0.478 |
| RRIRNRPPRLPRPRPRPACCPRP | 0.236 |
| RRIRLRPPRLPRPRPRPLHDPRP | -0.149 |
| RRIRWRPPRLPRPRPRPKPVPRP | 0.006 |
| RRIRYRPPRLPRPRPRPKEVPRP | 0.0274 |
| RRIRQRPPRLPRPRPRPVCYPRP | -0.636 |
| RRIRSRPPRLPRPRPRPFSIPRP | -0.379 |
| RRIRQRPPRLPRPRPRPYEQPRP | -0.609 |
| RRIRRRPPRLPRPRPRPMRLPRP | 0.667 |
| RRIRNRPPRLPRPRPRPNMVPRP | -0.385 |
| RRIRSRPPRLPRPRPRPFVQPRP | -0.496 |
| RRIRFRPPRLPRPRPRPTKSPRP | 0.106 |
| RRIRDRPPRLPRPRPRPTINPRP | 0.135 |
| RRIRFRPPRLPRPRPRPQMLPRP | -0.179 |
| RRIRERPPRLPRPRPRPVIFPRP | -0.392 |
| RRIRRRPPRLPRPRPRPNAKPRP | 0.0165 |
| RRIRCRPPRLPRPRPRPQNYPRP | -0.485 |
